Patent US8889621B2, “Inhibiting binding of FGF23 to the binary FGFR-Klotho complex for the treatment of hypophosphatemia” (New York University, priority 2009, dated 2014)
“Also recorded” adds a separate entry of the source. Like-named read-outs stand apart in the source and are kept apart here. Peptide text beside a SMILES is read from it.

B1: FGF23^28-251: human FGF23 (A28 to I251), bioactive full-length ligand expressed in E. coli (protein, listed as Homo sapiens)
chain: ASPLLGSSWGGLIHLYTATARNSYHLQIHKNGHVDGAPHQTIYSALMIRSEDAGFVVITGVMSRRYLCMDFRGNIFGSHYFDPENCRFQHQTLENGYDVYHSPQYHFLVSLGRAKRAFLPGMNPPPYSQFLSRRNEIPLIHFNTPIPRRHTRSAEDDSERDPLNVLKPRARMTPAPASCSQELPSAEDNSPMASDPLGVVRGGRVNTHAGGTGPEGCRPFAKFI
B2: FGF23^180-251: 72-amino acid C-terminal tail of human FGF23 (S180 to I251), expressed in E. coli (protein, listed as Homo sapiens)
chain: SAEDDSERDPLNVLKPRARMTPAPASCSQELPSAEDNSPMASDPLGVVRGGRVNTHAGGTGPEGCRPFAKFI

Tests used:
[1] = tested on: opossum kidney cell line OKP; assay type: cell-based; settings: for effect on phosphate uptake when applied alone: 500 nM
Source text: The effects of FGF23 proteins/peptides on sodium-coupled phosphate uptake were studied in the opossum kidney cell line OKP (Miyauchi et al., “Stimulation of transient elevations in cytosolic Ca2+ is related to inhibition of Pi transport in OK cells,” Am J Physiol 259(3 Pt 2):[…]-493 (1990), which is hereby incorporated by reference in its entirety). The cell line has many characteristics of renal proximal tubule epithelium, including sodium gradient-dependent phosphate transport and sensitivity to parathyroid hormone (Miyauchi et al., “Stimulation of transient elevations in cytosolic Ca2+ is related to inhibition of Pi transport in OK cells,” Am J Physiol 259(3 Pt 2):[…]-493 (1990), which is hereby incorporated by reference in its entirety). OKP cells also express FGFR1-4 and Klotho (see next methods section). OKP cells were grown in culture as described previously (Hu et al., “Dopamine Acutely Stimulates Na+/H+ Exchanger (NHE3) Endocytosis Via Clathrin-coated Vesicles: Dependence on Protein Kinase A-mediated NHE3 Phosphorylation,” J Biol Chem 276(29):26906-26915 (2001), which is hereby incorporated by reference in its entirety). Cells grown in 24-well plates were stimulated for 4 h with FGF23^28-251 (0.5 to 1 nM), FGF23^180-251 (500 nM), FGF23^180-205 (500 nM), or mixtures of FGF23^28-251 (1 nM) with either FGF23^180-251 (1 to 500 nM) or FGF23^180-205 (1 to 500 nM). The 1 nM concentration of FGF23^28-251 was chosen for competition experiments with FGF23 C-terminal peptides because at this concentration, half-maximum inhibition of phosphate uptake is reached. After stimulation, the cells were rinsed with Na^+-free solution followed by 5 min incubation with uptake solution containing 100 μM KH2^32PO4 (2 mCi/ml, Perkin Elmer). The reaction was stopped by aspiration of uptake solution and washing cells with ice-cold stop solution (10 mM HEPES pH 7.4, 140 mM NaCl, 1 mM MgCl2). Each transport reaction was performed in triplicates.

[2] = tested on: tyrosine phosphorylation of FRS2α and downstream activation of MAP kinase cascade; test: Phosphorylation of FRS2α and 44/42 MAP kinase in HEK293-Klotho cells; assay type: cell-based; settings: for inhibition of FGF23-induced phosphorylation of FRS2α and MAP kinase activation: FGF23^28-251 1 nM, 10 min
Protocol: Subconfluent HEK293-Klotho cells (Kurosu et al., “Regulation of Fibroblast Growth Factor-23 Signaling by Klotho,” J Biol Chem 281(10):6120-6123 (2006), which is hereby incorporated by reference in its entirety) were serum starved for 16 h and then stimulated for 10 min with either FGF23^28-251 (0.33 to 10 nM) or FGF23^180-251 (0.76 to 76.3 nM). In parallel experiments, cells were stimulated with FGF23^28-251 (1 nM) alone or with FGF23^28-251 (1 nM) mixed with increasing concentrations of either FGF23^180-251 (0.76 to 76.3 nM) or FGF23^180-205 (0.1 to 10 μM). Cell stimulation with FGF2 (2.9 nM) alone or FGF2 (2.9 nM) mixed with increasing concentrations of FGF23^180-251 (0.76 to 76.3 nM) served as controls. Similarly, subconfluent cells of a CHO cell line stably expressing Klotho (Imura et al., “Secreted Klotho Protein in Sera and CSF: Implication for Post-translational Cleavage in Release of Klotho Protein from Cell Membrane,” FEBS Lett 565(1-3):143-147 (2004), which is hereby incorporated by reference in its entirety) were treated with either FGF23^28-251 (0.067 to 20 nM) or FGF23^28-200 (0.04 to 12 nM).
In a separate experiment, the biological activity of the bacterially expressed FGF23^28-251 protein was compared to that of FGF23^25-251 expressed in the mouse myeloma cell line NS0 (R&D Systems). Subconfluent HEK293-Klotho cells were serum starved, and then treated with either of the two FGF23 proteins.
After stimulation, the cells were lysed (Kurosu et al, “Suppression of Aging in Mice by the Hormone Klotho,” Science 309(5742):1829-1833 (2005), which is hereby incorporated by reference in its entirety), and cellular proteins were resolved on SDS-polyacrylamide gels, transferred to nitrocellulose membranes, and the protein blots were probed with antibodies to phosphorylated FGF receptor substrate-2α (FRS2α), phosphorylated 44/42 MAP kinase and non-phosphorylated 44/42 MAP kinase, and Klotho. Except for the anti-Klotho antibody (Kato et al., “Establishment of the Anti-Klotho Monoclonal Antibodies and Detection of Klotho Protein in Kidneys,” Biochemical Biophysical Res Communications 267(2):597-602 (2000), which is hereby incorporated by reference in its entirety), all antibodies were from Cell Signaling Technology.

Molecule | effect on phosphate uptake when applied alone ([1]; 4 h) | IC50 ([1]; 4 h) | antagonism of FGF23 inhibition of phosphate uptake ([1]; FGF23^28-251 1 nM, 4 h stimulation) | inhibition of FGF23-induced phosphorylation of FRS2α and MAP kinase activation [2] | IC50 ([1]; 4 h stimulation, read-out: concentration at which half-maximum inhibition of phosphate uptake is reached) | inhibition of FGF2-induced phosphorylation of FRS2α and MAP kinase activation ([2]; FGF2 2.9 nM) | FGFR activation (FRS2α and 44/42 MAP kinase phosphorylation as readouts) ([2]; peptide alone / with FGF23)
CSCC[C@H](NC(=O)[C@H](CCCNC(=N)N)NC(=O)[C@H](C)NC(=O)[C@H](CCCNC(=N)N)NC(=O)[C@@H]1CCCN1C(=O)[C@H](CCCCN)NC(=O)[C@H](CC(C)C)NC(=O)[C@@H](NC(=O)[C@H](CC(N)=O)NC(=O)[C@H](CC(C)C)NC(=O)[C@@H]1CCCN1C(=O)[C@H](CC(=O)O)NC(=O)[C@H](CCCNC(=N)N)NC(=O)[C@H](CCC(=O)O)NC(=O)[C@H](CO)NC(=O)[C@H](CC(=O)O)NC(=O)[C@H](CC(=O)O)NC(=O)[C@H](CCC(=O)O)NC(=O)[C@H](C)NC(=O)[C@@H](N)CO)C(C)C)C(=O)N[C@H](C(=O)N1CCC[C@H]1C(=O)N[C@@H](C)C(=O)N1CCC[C@H]1C(=O)N[C@@H](C)C(=O)N[C@@H](CO)C(=O)O)[C@@H](C)O [FGF23^180-205] (H-SAEDDSERDPLNVLKPRARMTPAPAS-OH; N-terminus and C-terminus assumed) | neither of the two FGF23 C-terminal peptides altered phosphate uptake | 100 to 500 nM | similar, albeit less potent antagonistic effect | inhibited, in a dose-dependent fashion | – | – | –
B1 | – | – | – | – | 1 nM | – | –
B2 | neither of the two FGF23 C-terminal peptides altered phosphate uptake | – | – | inhibited, in a dose-dependent fashion | – | failed to inhibit | had no activity alone; also recorded: functioned as an antagonist
